Assay: label from the status in PepcDB records
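Further: failed if final PepcDB status was selected cloned or expressed and not failed if soluble or beyond.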

Sequence	protein production
MNNTIPRWRGFNLLEAFSIKSTGNFKEEDFLWMAQWDFNFVRIPMCHLLWSDRGNPFIIREDFFEKIDRVIFWGEKYGIHICISLHRAPGYSVNKEVEEKTNLWKDETAQEAFIHHWSFIARRYKGISSTHLSFNLINEPPFPDPQIMSVEDHNSLIKRTITEIRKIDPERLIIIDGLGYGNIPVDDLTIENTVQSCRGYIPFSVTHYKAEWVDSKDFPVPEWPNGWHFGEYWNREKLLEHYLTWIKLRQKGIEVFCGEMGAYNKTPHDVVLKWLEDLLEIFKTLNIGFALWNFRGPFGILDSERKDVEYEEWYGHKLDRKMLELLRKY	not failed
MNPDSQHHATFNPGKGEGSPVGIAILGYGTVGSQVLRLLTENHNDFQHRAGGPLEIKGVAASSVEKHRGSLADQLGLLTDDARSLIARDDVDIVVEVIGGIDYPRELILEALHSGKSVVTANKALVAAHSEELAAAADEAGVDLYFEAAVAAAIPVLGPLRRSLAGDQIQSVAGIVNGTTNFILDAMDSTGASYDDMLAEATRLGYAEADPTADVEGHDAASKAAILASLAFHTRVTYADVYCEGISKITADDINAAKEAGFTIKLLAICERLNVDGVEKVSARVHPTLVPRNHPLASVDKSFNAIFVEAEAAGRLMFYGNGAGGNPTASAVLGDIVGAARNKVFGGRAPGESTYADLPIAPFGEVPTRFHIDMEVEDRVGVLADLAKTFSNHGISLRTVRQAEKDGHARLIVVTHTAKESELEATVEQIKNSDSVKKINSVIRLAGE	failed
MNPENKMMLMAYGIFAIAGIISGILAYAPLGWIIGWIIYILAPKLLLNLVPDLPEELRNERVILRKTFWSFFFFWLYFTGLTYTLITNYEPVAYYEKALYYNITKG	failed
MNPKHSCTNFGADIPVNSQLIVTTSELRQKLKEKNKFILVDNRTWDEHIGKVSGYTYYDKKGRIPGALYGHSGSDSVSLEEYRNIDNTMRNKYEILEMWDKENIDVNKQLIFMCGSGWRAAEVLTYANVIGVENTSLYSDGWMGWSLDNSNLIEVGEHKLEHHHHHH	failed
MNPLDLIAKRAYPYETEKRDKTYLALNENPFPFPEDLVDEVFRRLNSDALRIYYDSPDEELIEKILSYLDTDFLSKNNVSVGNGADEIIYVMMLMFDRSVFFPPTYSCYRIFAKAVGAKFLEVPLTKDLRIPEVNVGEGDVVFIPNPNNPTGHVFEREEIERILKTGAFVALDEAYYEFHGESYVDFLKKYENLAVIRTFSKAFSLAAQRVGYVVASEKFIDAYNRVRLPFNVSYVSQMFAKVALDHREIFEERTKFIVEERERMKSALREMGYRITDSRGNFVFVFMEKEEKERLLEHLRTKNVAVRSFREGVRITIGKREENDMILRELEVFK	not failed
MNPPDISVLIVSFNTRDLLRRCLASLRDQAGGTGIETIVVDNASRDGSADMVEAEFPDVRLIRSPVNLGFGNANNLAFTQSRGRYLVLLNSDACLAPGLLDAASKRMDACPDVGMAGGRLVGPEGGWQPSARMFPSLLNEFLVLSGLAHRYPKSRLFGRFDRTWADPSEEAGVDWVPGAFAILRRDLIDRIGFFDPRFFLYYEEVDLCRRIRAAGCKIMYWPELVITHLGGESAKTLSDMEFSSHASQLTLWRMRSQALYYRKWHGLALAWSAKTLEQLWHWLRALRHRRSAPAKAHDSEALIRLWNRAWKETEGGRVSPPQPWLEHHHHHH	failed
MNPPEKLLTAENPALRQRAKAMRQEMSEAEAKLWQHLRAGRLNGYKFRRQQPMGNYIVDFMCVTPKLIVEADGGQHAEQAVYDHARTVYLNSLGFTVLRFWNHEILQQTNDVLAEILRVLQELEKQPAR	not failed
MNQEFFMLSQAMVEHLNEQINLEFFSSNLYLQMSAWCEDKGFDGAAEFLRAHAVEEMQHMQRLFTYVSETGALPILGAIAAPRHDFASLGEVFRETYQHEQKITQQINKLAHVAFTSQDYSTFNFLQWYVAEQHEEEKLFKGILDKLELVGEDGKALFFIDKDLAALAKKGSSSVMDAPAE	not failed
MNQLIFDFAAHDYPSFDKFLGTENAELVYVLRHKHGQFIYVWGEEGAGKSHLLQAWVAQALEAGKNAAYIDAASMPLTDAAFEAEYLAVDQVEKLGNEEQALLFSIFNRFRNSGKGFLLLGSEYTPQQLVIREDLRTRMAYCLVYEVKP	failed
MNQLSRSACTAPQRGGAWQWIACWALLLFTLLVAPLAAAQAVQGNASQEAALTVAPAPRVGVVTMQPGEVFFERFGHDAIVVVDPRTQQATSYNFGFFDPSEPDFVPRFARGDMMYYLVALPLEEDLSQYRDAGRGVSVQWLDLPPDQARALAEGLAVRSQPENARYHYDYFMANCATMVRDTLDRAMGGALKSQLAGRSRGNTFRSEAVRLASPAPWMWLGFDLGLGPYADRPLSRWEEAFVPMRLADSLTQVHNSAGRPLVQSTQVLLPHRIAPEPAEQQRHWWPWLLTGLIVAAGVLALGRRQRLLAGLALPFWLLCAIGGGLLVYLWGFTAHASAWGNRNLLLVNPLCMLLWFGGIRLQLGHRPGRWFNVLSWVVAACALAALVIHWLSFQAQDNLQWVMLLLPIHTALAIALRLRDLPVRTR	failed
MNQLTSSFIQNLAEDNIYKLPPHSIEAEQSVLGGLMLDNQAWDKVADIIIESDFYRQDHQLIYQHISRLIEQNKPADVITVAESLENAAQLQHAGGLAYIGAIAQNTPSAANIRRYAEIVRERSIMRKL	failed
MNQPASAYFMDERKDPVETHTLSVLVQNEPGVLARVIGLFSGRGYNIESLTVSETEAQKHVSRITIVTTGTLAVIQQIKHQLDRMVPVYRVVDMTLSGRSIERELAMVKLRGVGEHRVEALRLAEAFRARVIDATIESFVFEITGNSAKINQFIDLMRPLGLVEVSRTGVAAIGRGPEGM	failed
MNQPFLSVVIATFNVAEVLRECLHSLASQTFRDFEVVIQDGASTDGTLAVAQEAAGRLPRLSLASVADSGIYDAWNRALPRVTGDWVLFLGSDDTLAGPDVLAQCARRLADLPPQVLYACGDALEVYPDGSSRAVTCTAEGATRRMADHIPFCHSSLWHRACLFEARHFDATLRIAADYDLICRTWPHDGVGHTLGITVTHMGVGGVSSSPAHRLRTQWELVRVAARHGHGAFSRRRLVPLCKAVGLWVLCRLAGRRASVMLDRLRVMRGLPPCWTTADPARVGGRDSARGDALEHHHHHH	failed
MNQSLSPQQSPGFLFIAVSMITCLILLINVSFKIILLGGLVFAINSLICPLIAALFLFALRNCTFKEQRHLLNICLMTLYMFCIGVYVLVNLPAAEYMHDNPAYQVIFEEIPKKFFATTIAFALSFYLPHLLFCTKNDRVLSTPKQCVLLALLGGVSFFCLDFYLLFSAPHAHSFKQIFIDSFMISSLLLLIIGVVYLTFLLNDKQHKGKALIETTELTLFPIYQYLICFAVTVMLVCLACEYRIIAINKDLVLSASCIFFPITIIISSIVGELWGYQANLKLALALLAAQFIFDMLLMGSVALPSPPFFNLNPFYHYIMPRRLSAASLSLFVTFLGNAMLLHYLKYSKWKINRSLRILIANISVNSLLCLVDYSLLYGGIYPYEQIINLAVSVWQYKLLTALIALPVILWMCKILERNYSLVVQTERN	failed
MNQTRVLLIFSWLTVATLLWMDWSKNKNETLEISASHNLGVDSNLELEHAVPQIHAGAVPLQKDSQLIAAAPKVPVINVTTDVLQLKLDGFSILAADLLRFPQSKDRGAKPIKLLTDDPNYPYSATTGWVSQSNSPVPNLSTFLPEQPDVSYKLANDQNRLVVPFIWTAANGVSIRRTFTFERGRYAILIRDEIRNSGETPWNAYVFRKLSRVPIPNILNRAMTNPDSFSFNGAVWYSEKGGYERRAFKDYMNDGGLNREIGGGWIALLQHHFFTAWIPQKDQASLYLLAQNGSRDIAELRGPAFTVAPGQTTTTEARLWVGPKLVEQITKEHVKGLDRVVDYSRFQLMALIGQGLFWILSHLNSLLHNWGWAIVGLVVLLRIAMYPLSASQYKSAAKMRKFQPRLQQLKERYGEDRQKFQQAMMELYKKEKINPMGGCFPILIQMPIFFALYWVLVESVELRQAPWLGWIQDLTTRDPYFILPLLNIVIMWATQKLTPTPAGMDPIAGKMMQVMPLIFGVMMAFVPSGLALYWVINGGLNLLIQWWMIRQHADFSRKRSRENIK	failed
MNRARDWLEQARHNLRHAQGSLGLGDYAWACFAAQQAAEAALKGLHLARGQVAWGHSILDLLADLPEDVDVPEDLVEAAKVLDKYYIPTRYPDAHPAGPAARHYTRLEAEEALDLAQKILAFVEEKL	not failed
MNRAREINYLNSIALHQPFGIVGVSGETGIGKTTVLNFVNPEGVFTVRVNISLRDSMESILYDLLHSLALSLEKVEEVSDLAKEVRKWITDEVSTIKGFSLGVSFGVNASLTHEKSIRPRFNFFKAREKLGELIKQTVQRKGKFLLIIDELDKEKKEDVLRVIDSIKNFIIMEDFVVILSLPFSIYREYAADRLRWNEAGNLENIFTDIVFVEPLKKLEIKELIIKRLGSYIELIEDGVLDIVADFSDGNPRDGLWILTKAIYDNIHKELLSKEDLINTINRTISEYTGLTLNLTENQKKAIRVLRGSVYSREKIIETLQKEGFKRTTAYSVMDQLLQKRILLVEKEGYRISGKFSYMEI	failed
MNRDLPVLRALRSLPDKVVGEALVSNDAISMRYDVDASTGKVVRPSHDLYGQSISGKVLIFKNTKGGVATGWALLNLKSRGTAPIALVCDTTNPVFVQGAALAGLPIMDGFRESPRSAVRTGDVVELDGISGELKVLRRGAGGQLEHHHHHH	failed
MNRHLIHRRDILDTLVADLQAQQPDHIAVTGDLVNIALVNEFAPARQWLESVGPADRVSLVPGNHDAYVRSTAHRFAETFPDYISGDDATPGFPYLRRREAIAIIGVSSAVPTAPLRATGWLGAPQRAALEALLQSLAGERVFKVLLIHHPLQSRSRHKRLTDAADLIALLQRHPVDLVLHGHDHVHATVRIDTPFGAIPVVGVPSASAMNDRHRPSAAYNLFKISEGNDGWRCLEHHHHHH	failed
MNRICELLGIEHPIISGGMVWCSGWKLASAVSNCGGLGLIGAGSMHPDNLEHHIRSCKAATDKPFGVNVPLLYPEMDKIMEIIMREHVPVVVTSAGSPKVWTAKLKAAGSKVIHV	failed
MNRILQQVANQYWFRVSLTVICCLATICLGVHQSYVWFSVSACLLILSIIWQVRLYRLHIKQVLFMIDALENNDSAFRFPEESGTPESKQINRALNRVGHILYNVKAETAQQEKYYKLILDFVSTGLLVLNDNGAVYQKNKEALRLLGLNVFTHVRQLSKVDATLMEKIESCCSGDKLQVVFHNERGTVNLSIRVSEINVHKEHLRILALNDINIELDEKEIDSWIRLTRVLTHEIMNSVTPITSLSDTLLSMVEDKDEEISHGLQTISATGKGLLAFVESYRKFTRIPTPEPSLFYLKAFIERMVELARHQNPCDHITFHTKIDPADLILHADENLISQVVINLLKNAIQAIGDQPDGQIDIQVYCNETEEVLIEIKNNGPVIPPEIVEHIFIPFFTTKEGGSGIGLSISRQIMRLSGGSLTLLPDNKETKFILKFK	failed
MNRINYIRQAEKKYHDLCYEQYKLFETGSWLYKPVKTVMDLMDHFEGQNNLQVLDLGSGVGRNSIPIAQQIQNTSGTVTCVDLLDSALTKLKTYTKEHGVFEVIKTEQAAIENYYIVPNTYDYIVAVSSLEHVQSEEDLTNVLHSIKEGTKTGGINCLIINSNIQEIDLHTKEELDALIEINLPTEDMIHLLKSIYKEWKEIKVEIKELVYDIVRDEKQIQLKTNAITFVVQK	failed
MNRKILVTGATGSNGTEIVKRLAAKNVQVRAMVRDFDRAKKIAFPNVEVVEGNFDRPETLLEALAEVDRAFLLTNSTERAEAQQLAFVDAARQNGVKHIVKLSQFAADAHSPVRFLRYHAAVEAAIQGSGMTYTFLRPNLFMQGLLNFQSTITSQNAFYAAISDAKVSVVDVRDIADVAVVALTETEHEGKIYNLTGPQALTHAEMAEQLSAALNRQIAFVDIPSEVMRDQLLNIGMPPWQADGVIEDYAHYRRNEAAAVSSGIQDAIGKEPRSFNTFACDYAAMFG	failed

Source: a protein production outcome set (Wang et al. 2014)
